Laboratory results from US6362395.

Biological target: calmodulin (unlabeled, as used in the gel mobility-shift and kinase assays of Example 2) (UniProt P04353)

## lily CCaMK truncation mutant 1-356
  Ca2+/calmodulin-dependent kinase activity (histone IIAS phosphorylation): retained Ca2+/calmodulin-dependent kinase activity at a substantially reduced level
